Data reported in paper PMC6215446, “High-level expression and molecular characterization of a recombinant prolidase from Escherichia coli NovaBlue” (PeerJ, 2018).

B1: Escherichia coli NovaBlue prolidase (EcPepQ), His6-tagged (enzyme, UniProt P21165 1-443, looked up)
chain: MESLASLYKNHIATLQERTRDALARFKLDALLIHSGELFNVFLDDHPYPFKVNPQFKAWVPVTQVPNCWLLVDGVNKPKLWFYLPVDYWHNVEPLPTSFWTEDVEVIALPKADGIGSLLPAARGNIGYIGPVPERALQLGIEASNINPKGVIDYLHYYRSFKTEYELACMREAQKMAVNGHRAAEEAFRSGMSEFDINIAYLTATGHRDTDVPYSNIVALNEHAAVLHYTKLDHQAPEEMRSFLLDAGAEYNGYAADLTRTWSAKSDNDYAQLVKDVNDEQLALIATMKAGVSYVDYHIQFHQRIAKLLRKHQIITDMSEEAMVENDLTGPFMPHGIGHPLGLQVHDVAGFMQDDSGTHLAAPAKYPYLRCTRILQPGMVLTIEPGIYFIESLLAPWREGQFSKHFNWQKIEALKPFGGIRIEDNVVIHENNVENMTRDLKLA
notes: Prolidase (Xaa-Pro dipeptidase) PepQ of E. coli NovaBlue; residue number of 443 printed; Cloned BamHI/HindIII into pQE-30; also called Xaa-Pro dipeptidase; recombinant enzyme; source: E. coli M15 (pQE-EcPepQ), IPTG-induced, purified (Ni-NTA); not shown: His6, N-terminal, kept

Legend:
[1] = system: C[C@H](N)C(=O)N1CCC[C@H]1C(=O)O; test: proline release, ninhydrin colorimetric assay; Lineweaver-Burk; type: biochemical, Escherichia coli; conditions: 0.1 mM Mn2+, 25 mM Tris-HCl pH 8.0, 60 °C, 10 min, substrate 0.2-14.2 mM
[2] = target: the molecule itself; test: SEC; gel filtration on Superdex 200 HiLoad 16/60, 25 mM Tris-HCl buffer (pH 8.0) with 10 mM Mg(OAc)2 and 2 mM DTT; calibrated with thyroglobulin, aldolase, ovalbumin, ribonuclease A; apparent molecular mass of the native form

Row | Molecule | Km [1] [mM] | kcat [1] [s⁻¹] | stoichiometry N [2]
1 | EcPepQ (Escherichia coli K-12) | 8.8 ± 1.1 | 926.5 ± 2.0 | 
2 | B1 |  |  | 2
